Data taken from ChEMBL document CHEMBL1154868 (J Nat Prod, 2010).

B1: Pyridoxal kinase (Homo sapiens), O00764 (protein)
chain: MEEECRVLSIQSHVIRGYVGNRAATFPLQVLGFEIDAVNSVQFSNHTGYAHWKGQVLNSDELQELYEGLRLNNMNKYDYVLTGYTRDKSFLAMVVDIVQELKQQNPRLVYVCDPVLGDKWDGEGSMYVPEDLLPVYKEKVVPLADIITPNQFEAELLSGRKIHSQEEALRVMDMLHSMGPDTVVITSSDLPSPQGSNYLIVLGSQRRRNPAGSVVMERIRMDIRKVDAVFVGTGDLFAAMLLAWTHKHPNNLKVACEKTVSTLHHVLQRTIQCAKAQAGEGVRPSPMQLELRMVQSKRDIEDPEIVVQATVL

Assays:
[1] = physchem; details: octanol/water
Description: Lipophilicity, log P of the compound

[2] = substrate: Cc1ncc(CO)c(C=O)c1O; details: Homo sapiens
Description: (§1) Activity at human PKH kinase expressed in Escherichia coli by affinity chromatography

[3] = substrate: Cc1ncc(CO)c(CN)c1O; details: Homo sapiens
Description: as §1

[4] = substrate: COCc1c(CO)cnc(C)c1O; details: Homo sapiens
Description: as §1

[5] = substrate: Cc1ncc(CO)c(CO)c1O; details: Homo sapiens
Description: as §1

Row | Molecule | logP [1] | Km [2] [µM] | Km [3] [µM] | Km [4] [µM] | Km [5] [µM]
1 | Cc1ncc(CO)c(C=O)c1O [PYRIDOXAL] | -1.18 | – | – | – | –
2 | B1 | – | 59 | 130 | 5 | 9.9
